Among the data in patent US20180273587A1 (AILERON THERAPEUTICS, published 2018) are Ki values, retold here.

Positions of bridges follow the written chain, without caps; N, C: chain ends. Non-standard residues stand in square brackets, D forms with d. Phe(4-F) = N[C@@H](Cc1ccc(F)cc1)C(=O)O; R8 = C=CCCCCCC[C@@](C)(N)C(=O)O; hLeu = CC(C)CC[C@H](N)C(=O)O; S5 = C=CCCC[C@](C)(N)C(=O)O

What all share (test): Ki; method not stated; unit not printed (nM per Table 6)
Assay [1] deals with T1, MCL-1 (UniProt Q07820 172-327, limits assumed).
T1 construct: Target of the Ki columns; also called Myeloid cell leukemia 1
T1 sequence (Q07820 172-327 limits assumed): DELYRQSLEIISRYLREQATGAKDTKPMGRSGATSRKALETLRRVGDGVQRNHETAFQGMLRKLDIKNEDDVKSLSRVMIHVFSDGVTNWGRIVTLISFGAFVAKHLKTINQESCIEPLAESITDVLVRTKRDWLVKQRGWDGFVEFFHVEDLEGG

In assay [2] the target is T2, BCL-2 (UniProt P10415 1-217, limits assumed).
T2 construct: Target of the Ki columns
T2 sequence (P10415 1-217 limits assumed): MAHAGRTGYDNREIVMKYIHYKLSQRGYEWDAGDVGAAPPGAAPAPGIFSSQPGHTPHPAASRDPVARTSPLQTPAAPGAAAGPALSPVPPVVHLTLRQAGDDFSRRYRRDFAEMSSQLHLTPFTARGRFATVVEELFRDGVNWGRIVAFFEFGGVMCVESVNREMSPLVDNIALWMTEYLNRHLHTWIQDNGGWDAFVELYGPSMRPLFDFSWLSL

Assay [3] addresses T3, BCL-XL (UniProt Q07817 1-209).
T3 construct: Target of the Ki columns

T3 sequence (Q07817 1-209): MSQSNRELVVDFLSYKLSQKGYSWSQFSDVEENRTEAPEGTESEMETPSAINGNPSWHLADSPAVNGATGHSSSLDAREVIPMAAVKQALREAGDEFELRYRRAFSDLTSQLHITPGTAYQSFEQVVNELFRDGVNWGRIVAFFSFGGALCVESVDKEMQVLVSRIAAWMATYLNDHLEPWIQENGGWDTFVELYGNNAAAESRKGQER

For IWIAQALRAIGDAFNAYYX (N-terminal Ac; $r8 at 9 and $ at 16 (crosslinked); Aib at 19; C-terminal NH2) [SEQ ID NO: 1770], the Ki in assay [1] was 29 nM; in assay [2], 218 nM.

B1: SEQ ID NO: 1727 (peptide)
peptide: Ac-IHIAAALR[R8]IGDAFN[S5]YYA-NH2
modifications: staple 9-16
SMILES: CC[C@H](C)[C@H](NC(C)=O)C(=O)N[C@@H](Cc1c[nH]cn1)C(=O)N[C@H](C(=O)N[C@@H](C)C(=O)N[C@@H](C)C(=O)N[C@@H](C)C(=O)N[C@@H](CC(C)C)C(=O)N[C@@H](CCCNC(=N)N)C(=O)N[C@]1(C)CCCCCCC=CCCC[C@@](C)(C(=O)N[C@@H](Cc2ccc(O)cc2)C(=O)N[C@@H](Cc2ccc(O)cc2)C(=O)N[C@@H](C)C(N)=O)NC(=O)[C@H](CC(N)=O)NC(=O)[C@H](Cc2ccccc2)NC(=O)[C@H](C)NC(=O)[C@H](CC(=O)O)NC(=O)CNC(=O)[C@H]([C@@H](C)CC)NC1=O)[C@@H](C)CC
As to B1, the results for the inhibition constant (Ki) in assay [1], in assay [3] and in assay [2] were 6.6 nM, 19.5 nM and 43 nM, respectively.

B2: SEQ ID NO: 1728 (peptide)
peptide: Ac-ISIAAALR[R8]IGDAFN[S5]YYA-NH2
modifications: staple 9-16
SMILES: CC[C@H](C)[C@H](NC(C)=O)C(=O)N[C@@H](CO)C(=O)N[C@H](C(=O)N[C@@H](C)C(=O)N[C@@H](C)C(=O)N[C@@H](C)C(=O)N[C@@H](CC(C)C)C(=O)N[C@@H](CCCNC(=N)N)C(=O)N[C@]1(C)CCCCCCC=CCCC[C@@](C)(C(=O)N[C@@H](Cc2ccc(O)cc2)C(=O)N[C@@H](Cc2ccc(O)cc2)C(=O)N[C@@H](C)C(N)=O)NC(=O)[C@H](CC(N)=O)NC(=O)[C@H](Cc2ccccc2)NC(=O)[C@H](C)NC(=O)[C@H](CC(=O)O)NC(=O)CNC(=O)[C@H]([C@@H](C)CC)NC1=O)[C@@H](C)CC
In the case of B2, the Ki stood at 15.3 nM in assay [1], 56.2 nM in assay [3] and 89.5 nM in assay [2].

B3: SEQ ID NO: 1729 (peptide)
peptide: Ac-INIAAALR[R8]IGDAFN[S5]YYA-NH2
modifications: staple 9-16
SMILES: CC[C@H](C)[C@H](NC(C)=O)C(=O)N[C@@H](CC(N)=O)C(=O)N[C@H](C(=O)N[C@@H](C)C(=O)N[C@@H](C)C(=O)N[C@@H](C)C(=O)N[C@@H](CC(C)C)C(=O)N[C@@H](CCCNC(=N)N)C(=O)N[C@]1(C)CCCCCCC=CCCC[C@@](C)(C(=O)N[C@@H](Cc2ccc(O)cc2)C(=O)N[C@@H](Cc2ccc(O)cc2)C(=O)N[C@@H](C)C(N)=O)NC(=O)[C@H](CC(N)=O)NC(=O)[C@H](Cc2ccccc2)NC(=O)[C@H](C)NC(=O)[C@H](CC(=O)O)NC(=O)CNC(=O)[C@H]([C@@H](C)CC)NC1=O)[C@@H](C)CC
For B3, the Ki in assay [1] was determined as 11.2 nM; in assay [3] it was 37.3 nM; in assay [2], 62.5 nM.

B4: SEQ ID NO: 1780 (peptide)
peptide: Ac-AWIAAALR[R8][hLeu]GDAFN[S5]A[Phe(4-F)]A-NH2
modifications: staple 9-16
SMILES: CC[C@H](C)[C@H](NC(=O)[C@H](Cc1c[nH]c2ccccc12)NC(=O)[C@H](C)NC(C)=O)C(=O)N[C@@H](C)C(=O)N[C@@H](C)C(=O)N[C@@H](C)C(=O)N[C@@H](CC(C)C)C(=O)N[C@@H](CCCNC(=N)N)C(=O)N[C@]1(C)CCCCCCC=CCCC[C@@](C)(C(=O)N[C@@H](C)C(=O)N[C@@H](Cc2ccc(F)cc2)C(=O)N[C@@H](C)C(N)=O)NC(=O)[C@H](CC(N)=O)NC(=O)[C@H](Cc2ccccc2)NC(=O)[C@H](C)NC(=O)[C@H](CC(=O)O)NC(=O)CNC(=O)[C@H](CCC(C)C)NC1=O
As for B4, the Ki in assay [1] turned out to be 23 nM; in assay [3], 9 nM.
